{"source": "paper PMC10986958", "about": "(PLOS Pathogens, 2024)", "binders": {"B1": {"name": "NSs1 (residues 2-16 of RVFV NSs) (peptide)", "peptide": "DYFPVISVDLQSGRR"}, "B2": {"name": "NSs3 (residues 234-255 of RVFV NSs) (peptide)", "peptide": "GRNNWIPVIPPIPDVEMESEEE"}, "B3": {"name": "NSs4 (residues 247-265 of RVFV NSs) (peptide)", "peptide": "DVEMESEEESDDDGFVEVD"}, "B4": {"name": "NSs2 (residues 53-72 of RVFV NSs) (peptide)", "peptide": "RLRFSDFYNVGEFPYRVGLG"}}, "test_in_all_cases": "ITC", "conditions_in_all_cases": "both partners purified", "key": {"[1]": {"biological_target": "T1, GABARAP (residues 1-117 of human GABARAP) (human, UniProt O95166 1-117)", "T1 sequence (O95166 whole entry, the tested form may be a part)": "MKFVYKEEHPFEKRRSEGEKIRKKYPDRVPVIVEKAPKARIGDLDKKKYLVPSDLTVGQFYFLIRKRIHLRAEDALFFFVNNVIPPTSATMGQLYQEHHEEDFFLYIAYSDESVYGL"}, "[2]": {"biological_target": "LC3A (residues 1-121 of human LC3A) (human, UniProt Q9H492 1-121)"}, "[3]": {"biological_target": "T1, GABARAP (residues 1-117 of human …)", "remark": "listed apart in the source"}, "[4]": {"biological_target": "T2, GABARAPL1 (residues 1-117 of human GABARAPL1) (human, UniProt Q9H0R8 1-117)", "T2 construct": "also called GABARPL1", "T2 sequence (Q9H0R8 whole entry, the tested form may be a part)": "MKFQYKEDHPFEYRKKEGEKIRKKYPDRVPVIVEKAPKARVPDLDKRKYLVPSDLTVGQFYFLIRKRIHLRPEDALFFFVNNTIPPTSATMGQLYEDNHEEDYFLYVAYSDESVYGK"}, "[5]": {"biological_target": "T3, LC3B (residues 1-125 of human LC3B) (human, UniProt Q9GZQ8 1-125)"}, "[6]": {"biological_target": "T2, GABARAPL1 (residues 1-117 of human …)", "remark": "listed apart in the source"}, "[7]": {"biological_target": "T3, LC3B (residues 1-125 of human LC3B)", "remark": "listed apart in the source"}}}
{"binder": "B1", "values": [{"measurement": "Kd", "setting": "[1]", "value": "> 100", "unit": "µM"}, {"measurement": "Kd", "setting": "[2]", "value": "> 100", "unit": "µM"}]}
{"binder": "B2", "values": [{"measurement": "stoichiometry N", "setting": "[1]", "value": 1}, {"measurement": "Kd", "setting": "[2]", "value": "> 100", "unit": "µM"}, {"measurement": "Kd", "setting": "[3]", "value": 16, "unit": "µM"}]}
{"binder": "B3", "values": [{"measurement": "stoichiometry N", "setting": "[4]", "value": 1}, {"measurement": "stoichiometry N", "setting": "[5]", "value": 1}, {"measurement": "Kd", "setting": "[6]", "value": 0.49, "unit": "µM"}, {"measurement": "Kd", "setting": "[7]", "value": 0.6, "unit": "µM"}]}
{"binder": "B4", "values": [{"measurement": "Kd", "setting": "[1]", "value": "> 100", "unit": "µM"}, {"measurement": "Kd", "setting": "[2]", "value": "> 100", "unit": "µM"}]}
